Two substances from publication PMC10889554 can be followed below.

Where only a bound is given, the exact number is not on record here.

Experiment [1] addresses human cathepsin V (human) (UniProt O60911).
Experiment [2] has as its target human cathepsin L (human).
The target in experiment [3] is human cathepsin K (human) (UniProt P43235).
In experiment [4] the target is human cathepsin V (human) (UniProt O60911). Briefly: enzyme inhibition kinetics (fluorogenic peptide substrate activity assay); inhibitor preincubated with protease 15 min, 37 °C; IC50 from residual velocities, Ki by the Cheng-Prusoff equation; 50 mM sodium acetate pH 5.5, 0.1% polyethylene glycol 1500, 2.5 mM dithiothreitol (cathepsins L, K, V, B, F, C and papain; 50 mM NaCl for cathepsin C).

Experiment [5] concerns the target human cathepsin L (human). Described as above.
Experiment [6] has as its target human cathepsin K (human) (UniProt P43235). Described as above.
Experiment [7] shares this target. This is another data set of the same source.

Chain of human cathepsin K (human) (P43235 115-329): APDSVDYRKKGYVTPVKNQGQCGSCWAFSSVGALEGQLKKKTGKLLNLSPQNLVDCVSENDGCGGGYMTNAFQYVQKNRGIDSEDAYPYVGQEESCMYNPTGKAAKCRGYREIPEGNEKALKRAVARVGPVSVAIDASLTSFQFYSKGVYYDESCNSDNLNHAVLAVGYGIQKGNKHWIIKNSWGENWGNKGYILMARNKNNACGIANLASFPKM
Chain of human cathepsin V (human) (O60911 114-334): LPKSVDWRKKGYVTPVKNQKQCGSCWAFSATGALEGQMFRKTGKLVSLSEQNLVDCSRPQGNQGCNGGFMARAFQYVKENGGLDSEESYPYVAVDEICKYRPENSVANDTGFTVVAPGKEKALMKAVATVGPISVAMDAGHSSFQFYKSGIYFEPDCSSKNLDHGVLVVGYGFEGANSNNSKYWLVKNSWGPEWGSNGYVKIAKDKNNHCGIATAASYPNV

One may read the Ki as the dissociation constant of the complex between target and ligand, obtained from inhibition or displacement. A high value points to a looser hold on the target. As for “Ir-thyropin (IrThy), recombinant full-length mature protein (natural protein)”, the % inhibition of cathepsin V activity by IrThy, no GAG, pH 5.5 in experiment [1] turned out to be 25%. Also, in experiment [2], the change of % inhibition of cathepsin L activity by IrThy with GAGs at 10 µg/mL is under 15%. In experiment [3], this substance returned a % inhibition of cathepsin K activity by IrThy with chondroitin-4-sulfate at 10 µg/mL of 16%; a % inhibition of cathepsin K activity by IrThy with chondroitin-6-sulfate at 10 µg/mL of 23%; a % inhibition of cathepsin K activity by IrThy, no GAG, pH 5.5 of 50%. Further, in experiment [4], the Ki was determined as 34.7 nM. The substance further came in with a Ki in experiment [5] of 201 nM. The same substance displayed a Ki in experiment [6] of 56.9 nM. Moreover, in experiment [7], the reduction of inhibition of cathepsin K activity by IrThy with 0.3 M NaCl, without heparin was determined as 20%.

Consider “IrThy-Cd, recombinant C-terminal Tg1 domain of IrThy (domain or fragment)”, for which the Ki in experiment [4] came out at 40.7 nM; in experiment [5], 795 nM; in experiment [6] it was 53.1 nM.
